Assay [1] deals with T1, TRPM2 interaction with GluN2a (Rattus norvegicus, UniProt Q00959).
T1 construct: TRPM2 plasmid a gift 17928; 17924; 17925; host or cells: HEK293T
Kind of assay: Co-IP of TRPM2 with GluN2a in co-transfected HEK293T cells. The format is cell-based, human. The conditions noted are these: 10 μM peptide overnight; IP anti-GluN2a, WB anti-Flag. As to the method: FIGS. 5A and 5B show the effects of TAT-EE3 on interaction of TRPM2 and NMDARs. Co-IP tests of NMDARs with WT or EE3 domain mutants of TRPM2 (Flag-tagged) in co-transfected HEK293T cells. WT TRPM2 groups were treated with 10 μM TAT-SC or TAT-EE3 overnight. Lysates were IP's with anti-GluN2a (FIG. 5A) or anti-GluN2b (FIG. 5B), and probed by WBs with anti-Flag. IgG was used as control for IP. Similar to the mutants TRPM2-ΔEE3 and TRPM2-EQE, TAT-EE3 disrupted TRPM2 interaction with GluN2a and GluN2b.
were ordered from GenScript Biotech, and dissolved in PBS to make a stock concentration at 10 mM. HEK-293T cells or isolated neurons were treated with TAT-SC or TAT-EE3 at a concentration of 10 μM for at least 8 h prior to use. Mice were injected with TAT-SC or TAT-EE3 intraperitoneally (ip) at a dose of 100 nmol/kg. […]
NP-40 lysis buffer ([…], 150 mM NaCl, 1 mM EDTA, 50 mM Tris, pH=8.0) containing proteinase inhibitors (Sigma-Aldrich, 539131-10VL) and phosphatase inhibitors (Thermal Fisher Scientific, 78428) was used to lyse both cultured cells and frozen brain tissue. […] Protein concentration was measured using Pierce™ Rapid Gold BCA Protein Assay Kit (Thermal Fisher Scientific, A53225). […] Then samples were ready for western blotting analysis.

For assay [2], the target named is T2, NMDARs (Mus musculus, UniProt P35436+Q01097).
T2 construct: from tissue; host or cells: mouse brain, membrane protein extract 24 h after MCAO or sham
T2 sequence (P35436 20-1464 limits assumed, other chains not shown): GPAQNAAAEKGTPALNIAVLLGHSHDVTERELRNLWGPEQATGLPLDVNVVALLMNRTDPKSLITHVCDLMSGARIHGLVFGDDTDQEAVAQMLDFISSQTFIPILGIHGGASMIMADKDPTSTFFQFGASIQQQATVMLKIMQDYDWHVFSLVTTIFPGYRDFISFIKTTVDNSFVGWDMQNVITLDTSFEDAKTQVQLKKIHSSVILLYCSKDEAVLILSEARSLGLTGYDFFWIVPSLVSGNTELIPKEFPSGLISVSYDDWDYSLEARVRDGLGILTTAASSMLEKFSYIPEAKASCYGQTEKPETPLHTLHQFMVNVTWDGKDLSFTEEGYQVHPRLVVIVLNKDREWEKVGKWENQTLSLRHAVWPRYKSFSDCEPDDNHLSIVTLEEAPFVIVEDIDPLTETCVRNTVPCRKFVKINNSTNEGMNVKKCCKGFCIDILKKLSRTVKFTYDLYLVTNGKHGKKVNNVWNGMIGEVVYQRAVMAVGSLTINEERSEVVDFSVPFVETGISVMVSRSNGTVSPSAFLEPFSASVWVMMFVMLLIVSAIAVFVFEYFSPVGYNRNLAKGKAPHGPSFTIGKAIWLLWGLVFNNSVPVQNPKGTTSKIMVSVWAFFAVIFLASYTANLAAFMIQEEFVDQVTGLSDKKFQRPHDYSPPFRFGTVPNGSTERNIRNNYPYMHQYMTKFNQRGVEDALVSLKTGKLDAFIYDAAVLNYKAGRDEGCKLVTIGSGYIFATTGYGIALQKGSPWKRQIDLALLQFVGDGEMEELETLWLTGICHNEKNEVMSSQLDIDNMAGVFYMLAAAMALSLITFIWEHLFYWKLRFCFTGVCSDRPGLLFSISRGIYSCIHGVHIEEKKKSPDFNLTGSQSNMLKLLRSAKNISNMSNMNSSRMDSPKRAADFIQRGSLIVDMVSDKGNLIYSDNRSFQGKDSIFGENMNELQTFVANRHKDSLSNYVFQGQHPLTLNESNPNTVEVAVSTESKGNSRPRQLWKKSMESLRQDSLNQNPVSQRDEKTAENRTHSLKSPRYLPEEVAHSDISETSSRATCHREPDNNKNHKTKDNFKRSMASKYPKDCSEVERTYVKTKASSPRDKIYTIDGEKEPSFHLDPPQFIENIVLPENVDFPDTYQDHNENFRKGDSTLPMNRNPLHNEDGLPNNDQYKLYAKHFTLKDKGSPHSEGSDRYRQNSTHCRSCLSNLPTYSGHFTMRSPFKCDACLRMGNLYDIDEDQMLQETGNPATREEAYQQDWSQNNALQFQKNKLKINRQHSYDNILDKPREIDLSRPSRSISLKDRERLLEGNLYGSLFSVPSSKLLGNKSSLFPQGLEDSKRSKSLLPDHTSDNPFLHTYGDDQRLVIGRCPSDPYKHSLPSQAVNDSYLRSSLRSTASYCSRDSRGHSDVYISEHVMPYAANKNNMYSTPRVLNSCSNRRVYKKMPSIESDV
T2 sequence (Q01097 27-1482, other chains not shown): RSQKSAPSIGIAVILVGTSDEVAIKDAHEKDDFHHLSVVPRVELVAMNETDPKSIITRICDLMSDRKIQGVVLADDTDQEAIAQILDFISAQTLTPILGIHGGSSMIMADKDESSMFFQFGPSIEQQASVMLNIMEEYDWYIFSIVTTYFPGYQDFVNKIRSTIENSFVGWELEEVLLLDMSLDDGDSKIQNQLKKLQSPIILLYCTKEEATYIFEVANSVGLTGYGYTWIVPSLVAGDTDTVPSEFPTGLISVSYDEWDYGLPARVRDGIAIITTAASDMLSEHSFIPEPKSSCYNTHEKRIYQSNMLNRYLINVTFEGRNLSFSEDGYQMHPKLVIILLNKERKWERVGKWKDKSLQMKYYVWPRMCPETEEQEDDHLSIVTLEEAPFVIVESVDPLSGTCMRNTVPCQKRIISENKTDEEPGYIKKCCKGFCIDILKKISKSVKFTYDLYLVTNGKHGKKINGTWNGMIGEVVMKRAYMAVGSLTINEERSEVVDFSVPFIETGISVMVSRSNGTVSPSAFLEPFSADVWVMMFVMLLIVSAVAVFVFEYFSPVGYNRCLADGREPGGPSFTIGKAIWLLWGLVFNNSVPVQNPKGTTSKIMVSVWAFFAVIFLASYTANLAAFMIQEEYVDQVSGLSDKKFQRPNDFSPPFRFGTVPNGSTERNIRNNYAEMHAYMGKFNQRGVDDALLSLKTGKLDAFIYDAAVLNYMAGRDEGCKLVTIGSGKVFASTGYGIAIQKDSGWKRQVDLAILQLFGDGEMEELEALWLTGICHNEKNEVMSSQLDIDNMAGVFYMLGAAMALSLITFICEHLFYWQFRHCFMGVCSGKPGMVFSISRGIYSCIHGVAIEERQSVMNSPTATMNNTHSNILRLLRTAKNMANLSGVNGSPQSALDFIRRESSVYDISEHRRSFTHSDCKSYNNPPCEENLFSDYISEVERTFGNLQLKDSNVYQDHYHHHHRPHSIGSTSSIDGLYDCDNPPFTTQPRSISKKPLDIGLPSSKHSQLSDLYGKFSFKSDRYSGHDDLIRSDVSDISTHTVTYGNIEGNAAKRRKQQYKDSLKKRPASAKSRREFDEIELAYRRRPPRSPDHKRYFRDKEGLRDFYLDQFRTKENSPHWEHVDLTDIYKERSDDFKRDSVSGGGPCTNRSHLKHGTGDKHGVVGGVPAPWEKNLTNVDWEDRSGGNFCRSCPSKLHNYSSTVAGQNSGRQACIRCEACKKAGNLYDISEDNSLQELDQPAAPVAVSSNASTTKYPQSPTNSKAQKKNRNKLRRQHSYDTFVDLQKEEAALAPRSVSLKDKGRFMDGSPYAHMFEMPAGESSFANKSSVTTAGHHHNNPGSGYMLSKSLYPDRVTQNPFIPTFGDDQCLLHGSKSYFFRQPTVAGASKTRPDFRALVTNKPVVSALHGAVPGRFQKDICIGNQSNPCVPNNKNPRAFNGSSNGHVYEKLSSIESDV
As to the kind of experiment: Surface expression of NMDARs in brains of MCAO mice (WB). The format is in vivo. The conditions noted are these: 100 nmol/kg ip 15 mins before MCAO; 24 hrs after MCAO. As for the experimental part: FIGS. 7D and 7E show the effects of TAT-EE3 on surface expression of NMDARs in WT and nM2KO mice 24 hrs after MCAO or sham procedure. TAT-SC and TAT-EE3 were ip administrated (100 nmol/kg) 15 mins before MCAO or sham procedure. FIG. 7D show the WB of surface expression of NMDARs from two representative samples/group. Pan-cadherin was used as loading control. FIG. 7E show the quantification of surface expression of NMDARs normalized to Pan-cadherin (ns, p>0.05; ***, p<0.001; ANOVA, Bonferroni's test; mean±SEM; n=4 mice/group).
Eight-to nine-week-old male mice (˜25 g) were subjected to right middle cerebral artery occlusion (MCAO) for 120 min followed by 24 hours of reperfusion. The genotype information was blinded to the surgeon who conduct the surgeries. […] Mouse body temperature was monitored by a rectal temperature probe and maintained at ˜ 37° C. with an automatic temperature-regulating heating pad connected to animal temperature controller (TCA T-2DF, Physitemp). Cerebral blood flow was monitored after occlusion as well as after reperfusion. […] Successful occlusion was confirmed by 85% reduction of cerebral blood flow monitored by Laser Doppler Flowmetry (LDF) with laser Doppler blood FlowMeter (Moor-VMS-LDF1, Moor Instrument, Dever, UK). […]

T1 sequence (Q00959 23-1464, other chains not shown): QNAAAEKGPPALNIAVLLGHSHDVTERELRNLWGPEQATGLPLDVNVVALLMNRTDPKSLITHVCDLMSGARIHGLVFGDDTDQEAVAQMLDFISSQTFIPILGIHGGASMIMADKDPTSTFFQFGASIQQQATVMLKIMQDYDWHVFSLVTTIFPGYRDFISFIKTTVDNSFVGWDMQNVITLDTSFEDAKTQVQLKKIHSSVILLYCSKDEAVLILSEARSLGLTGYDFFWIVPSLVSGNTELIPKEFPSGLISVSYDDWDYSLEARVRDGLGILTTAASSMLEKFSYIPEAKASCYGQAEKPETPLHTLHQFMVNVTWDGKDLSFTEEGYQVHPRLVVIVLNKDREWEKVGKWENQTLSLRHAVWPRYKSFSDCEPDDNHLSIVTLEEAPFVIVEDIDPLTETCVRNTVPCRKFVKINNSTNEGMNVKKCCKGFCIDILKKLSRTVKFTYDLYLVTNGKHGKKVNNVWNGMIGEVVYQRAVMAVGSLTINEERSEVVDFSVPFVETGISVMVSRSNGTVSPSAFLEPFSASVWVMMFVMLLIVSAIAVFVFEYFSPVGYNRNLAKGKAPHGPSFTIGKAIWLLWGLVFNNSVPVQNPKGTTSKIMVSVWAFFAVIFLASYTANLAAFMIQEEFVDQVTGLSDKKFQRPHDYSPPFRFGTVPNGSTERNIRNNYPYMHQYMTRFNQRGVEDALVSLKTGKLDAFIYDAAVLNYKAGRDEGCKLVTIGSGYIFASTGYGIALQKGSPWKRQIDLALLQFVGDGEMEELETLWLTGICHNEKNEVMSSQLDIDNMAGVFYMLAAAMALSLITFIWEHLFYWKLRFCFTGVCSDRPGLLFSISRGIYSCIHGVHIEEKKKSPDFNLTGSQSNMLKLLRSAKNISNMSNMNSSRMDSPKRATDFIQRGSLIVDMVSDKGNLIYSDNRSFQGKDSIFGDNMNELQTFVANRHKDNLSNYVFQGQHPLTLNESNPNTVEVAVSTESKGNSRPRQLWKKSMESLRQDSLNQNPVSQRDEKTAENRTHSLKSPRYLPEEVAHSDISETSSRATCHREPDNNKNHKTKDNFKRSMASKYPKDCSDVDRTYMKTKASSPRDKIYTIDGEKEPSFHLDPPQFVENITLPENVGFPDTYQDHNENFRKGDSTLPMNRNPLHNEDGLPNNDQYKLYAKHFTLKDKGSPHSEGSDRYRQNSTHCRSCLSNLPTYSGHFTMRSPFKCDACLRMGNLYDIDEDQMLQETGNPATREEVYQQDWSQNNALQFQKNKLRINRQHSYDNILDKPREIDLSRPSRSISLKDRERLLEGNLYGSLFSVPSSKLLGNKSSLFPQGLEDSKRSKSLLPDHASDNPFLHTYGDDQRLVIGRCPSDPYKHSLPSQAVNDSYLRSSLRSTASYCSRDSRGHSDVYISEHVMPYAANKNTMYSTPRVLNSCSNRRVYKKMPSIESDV

On to “TAT-EE3: membrane permeable disrupting peptide, sequence YGRKKRRQRRREEDTDSSEEMLALAEE (SEQ ID NO: 4)”, for which, in assay [1], the “interaction of TRPM2 with GluN2a (co-IP)” value is “completely disrupted”. Also, the “enhanced surface expression of NMDARs in MCAO mice” value in assay [2] is listed as “abolished”.
